Test results published in patent US20250059282A1 (University of Texas, published 2025).
Like-named read-outs stand apart in the source and are kept apart here.

How the values were obtained:
Human PD-L1-HIS [1] = molecular target: T1, Human PD-L1-HIS (human, UniProt Q9NZQ7 19-238); test: ForteBio, IgG, monovalent
T1 construct: also called HIS-tagged monovalent PD-L1; His-tagged human PD-L1; not shown: His tag

Human PD-L2-HIS [2] = molecular target: T2, Human PD-L2-HIS (human, UniProt Q9BQ51 20-220); test: ForteBio, IgG, monovalent
T2 construct: also called His-tagged human PD-L2; not shown: His tag
T2 sequence: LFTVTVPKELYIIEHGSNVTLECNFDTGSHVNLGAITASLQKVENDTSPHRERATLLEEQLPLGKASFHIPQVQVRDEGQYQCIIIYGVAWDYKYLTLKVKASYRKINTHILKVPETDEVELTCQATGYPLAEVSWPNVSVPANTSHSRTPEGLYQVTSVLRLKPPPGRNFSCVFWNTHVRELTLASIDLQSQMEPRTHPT

human PD-L1 on CHO cells = human PD-L1 on CHO cells (human, UniProt Q9NZQ7 19-290); test: cell-based or functional assay
human PD-L1 on CHO cells, sequence (Q9NZQ7 19-290 limits assumed): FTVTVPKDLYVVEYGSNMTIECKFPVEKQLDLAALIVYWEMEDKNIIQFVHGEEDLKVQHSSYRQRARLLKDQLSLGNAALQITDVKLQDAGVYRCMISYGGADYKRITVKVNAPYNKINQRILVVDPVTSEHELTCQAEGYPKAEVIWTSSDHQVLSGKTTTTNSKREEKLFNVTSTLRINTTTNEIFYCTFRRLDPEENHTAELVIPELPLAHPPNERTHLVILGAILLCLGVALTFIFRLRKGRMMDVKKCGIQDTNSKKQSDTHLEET

human PD-L2 on CHO cells = molecular target: T3, human PD-L2 on CHO cells (human, UniProt Q9BQ51 20-273); test: cell-based or functional assay
T3 sequence: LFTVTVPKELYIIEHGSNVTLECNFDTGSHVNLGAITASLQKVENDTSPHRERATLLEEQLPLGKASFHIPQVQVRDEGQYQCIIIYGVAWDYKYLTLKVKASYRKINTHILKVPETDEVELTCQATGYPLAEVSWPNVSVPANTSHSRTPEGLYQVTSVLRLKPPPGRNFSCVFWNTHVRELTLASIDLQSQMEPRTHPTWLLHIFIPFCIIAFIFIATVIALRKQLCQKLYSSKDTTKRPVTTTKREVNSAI

Mouse PD-L2-Fc [3] = molecular target: T4, Mouse PD-L2-Fc (mouse, UniProt Q9WUL5 20-219, limits assumed); test: ForteBio, IgG, avid
T4 construct: also called murine PD-L2; not shown: Fc
T4 sequence (looked up): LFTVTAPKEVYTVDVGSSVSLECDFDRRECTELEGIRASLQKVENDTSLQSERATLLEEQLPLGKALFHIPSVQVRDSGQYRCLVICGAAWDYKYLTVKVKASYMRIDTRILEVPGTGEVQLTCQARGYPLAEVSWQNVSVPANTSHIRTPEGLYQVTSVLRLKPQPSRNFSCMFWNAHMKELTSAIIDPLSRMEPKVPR

Cyno PD-L2-Fc [4] = molecular target: T5, Cyno PD-L2-Fc (cynomolgus, UniProt A0A2K5U5Z4 20-220); test: ForteBio, IgG, avid
T5 construct: also called cynomolgus PD-L2; not shown: Fc
T5 sequence: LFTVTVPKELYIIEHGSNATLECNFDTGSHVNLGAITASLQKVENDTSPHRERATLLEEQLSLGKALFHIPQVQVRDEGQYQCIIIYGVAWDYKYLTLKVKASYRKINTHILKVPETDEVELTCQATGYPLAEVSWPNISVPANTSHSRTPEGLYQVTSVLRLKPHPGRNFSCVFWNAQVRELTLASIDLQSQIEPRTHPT

Cyno PD-L1-Fc [5] = molecular target: T6, Cyno PD-L1-Fc (cynomolgus, UniProt G7PSE7 19-238); test: ForteBio, IgG, avid
T6 construct: also called cynomolgus PD-L1
T6 sequence (G7PSE7 entry or part of it limits assumed): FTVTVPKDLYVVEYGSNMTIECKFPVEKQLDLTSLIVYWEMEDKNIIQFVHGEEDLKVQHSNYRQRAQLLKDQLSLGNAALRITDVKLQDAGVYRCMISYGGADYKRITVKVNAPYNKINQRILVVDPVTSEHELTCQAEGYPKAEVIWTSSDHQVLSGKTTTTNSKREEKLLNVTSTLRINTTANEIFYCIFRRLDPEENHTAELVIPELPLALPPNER

Mouse PD-L1-Fc [6] = molecular target: T7, Mouse PD-L1-Fc (mouse, UniProt Q9EP73 19-239, limits assumed); test: ForteBio, IgG, avid
T7 construct: also called murine PD-L1; not shown: Fc
T7 sequence (Q9EP73 19-239 limits assumed): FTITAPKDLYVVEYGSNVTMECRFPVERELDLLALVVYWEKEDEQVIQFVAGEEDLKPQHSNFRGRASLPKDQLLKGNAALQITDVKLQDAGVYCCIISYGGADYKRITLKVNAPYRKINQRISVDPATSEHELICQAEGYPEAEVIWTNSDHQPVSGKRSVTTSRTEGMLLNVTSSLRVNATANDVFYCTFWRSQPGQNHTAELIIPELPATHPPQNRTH

Human PD-L1-HIS [7] = molecular target: T1, Human PD-L1-HIS; test: ForteBio, IgG, monovalent; remark: listed apart in the source
Human PD-L2-HIS [8] = molecular target: T2, Human PD-L2-HIS; test: ForteBio, IgG, monovalent; remark: listed apart in the source
Mouse PD-L2-Fc [9] = molecular target: T4, Mouse PD-L2-Fc; test: ForteBio, IgG, avid; remark: listed apart in the source
Cyno PD-L2-Fc [10] = molecular target: T5, Cyno PD-L2-Fc; test: ForteBio, IgG, avid; remark: listed apart in the source
Cyno PD-L1-Fc [11] = molecular target: T6, Cyno PD-L1-Fc; test: ForteBio, IgG, avid; remark: listed apart in the source
Mouse PD-L1-Fc [12] = molecular target: T7, Mouse PD-L1-Fc; test: ForteBio, IgG, avid; remark: listed apart in the source
Human b-PD-L2-His = molecular target: T8, Human b-PD-L2-His (human, UniProt Q9BQ51 20-220, biotinylated (b-); sites not stated); test: MSD-SET, Fab, monovalent
T8 construct: Antigen of the MSD-SET measurements; also called biotinylated human PD-L2-His; not shown: His tag
T8 sequence: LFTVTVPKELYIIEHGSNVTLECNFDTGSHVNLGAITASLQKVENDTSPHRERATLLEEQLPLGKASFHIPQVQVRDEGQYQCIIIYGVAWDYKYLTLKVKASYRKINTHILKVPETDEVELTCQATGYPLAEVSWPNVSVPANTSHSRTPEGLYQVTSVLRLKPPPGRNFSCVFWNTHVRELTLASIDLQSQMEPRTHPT
Procedure: Briefly, solution equilibrium titrations (SET) were performed in PBS +0.1% IgG-Free BSA (PBSF) with antigen held constant at 50 pM and incubated with 3- to 5-fold serial dilutions of Fab starting at 20 nM. Antibodies (20 nM in PBS) were coated onto standard bind MSD®-ECL plates overnight at 4° C. or at room temperature for 30 min. Plates were then blocked by BSA for 30 min with shaking at 700 rpm, followed by three washes with wash buffer (PBSF+0.05% Tween 20). SET samples were applied and incubated on the plates for 150 s with shaking at 700 rpm followed by one wash. Antigen captured on a plate was detected with 250 ng/mL sulfotag-labeled streptavidin in PBSF by incubation on the plate for 3 min. The plates were washed three times with wash buffer and then read on the MSD® Sector Imager 2400 instrument using 1× Read Buffer T with surfactant. The percent free antigen was plotted as a function of titrated antibody in Prism and fit to a quadratic equation to extract the KD. To improve throughput, liquid handling robots were used throughout MSD®-SET experiments, including SET sample preparation.

Human PD-L2-Fc = molecular target: T9, Human PD-L2-Fc (human, UniProt Q9BQ51 20-220); test: ForteBio, Fab, monovalent
T9 construct: also called dimeric PD-L2; PD-L2 (dimeric ligand); not shown: human IgG1 Fc constant region
T9 sequence: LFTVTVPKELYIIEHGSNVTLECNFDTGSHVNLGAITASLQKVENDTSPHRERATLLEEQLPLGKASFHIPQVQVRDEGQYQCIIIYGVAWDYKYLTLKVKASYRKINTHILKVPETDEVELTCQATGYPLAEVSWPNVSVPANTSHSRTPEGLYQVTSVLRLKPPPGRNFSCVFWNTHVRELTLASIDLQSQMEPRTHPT
Procedure: (§1) ForteBio KD measurements—ForteBio affinity measurements were performed on an Octet® RED384 generally as previously described (see, e.g., Estep et al., 2013). Briefly, ForteBio affinity measurements were performed by loading IgGs on-line onto AHQ sensors. Sensors were equilibrated off-line in assay buffer for 30 min and then monitored on-line for 60 seconds for baseline establishment. Sensors with loaded IgGs were exposed to 100 nM antigen for 3 minutes, and afterwards were transferred to assay buffer for 3 min for off-rate measurement. For monovalent affinity assessment Fabs were used instead of IgGs. For this assessment the […] Fc fusion antigen was loaded on-line onto the AHQ sensors. Sensors were equilibrated off-line in assay buffer for 30 min and then monitored on-line for 60 seconds for baseline establishment. Sensors with loaded antigen were exposed to 100 nM Fab for 3 minutes, and afterwards they were transferred to assay buffer for 3 min for off-rate measurement. All kinetics were analyzed using the 1:1 binding model.

Human PD-L1-Fc = molecular target: T10, Human PD-L1-Fc (human, UniProt Q9NZQ7 19-238); test: ForteBio, Fab, monovalent
T10 construct: also called dimeric PD-L1; PD-L1 (dimeric ligand); not shown: human IgG1 Fc constant region
T10 sequence (Q9NZQ7 19-238 limits assumed): as the sequence (G7PSE7 entry or part of it limits assumed) above, with T33A, S34A, N62S, Q68R, R82Q, L173F, A185T, I192T, L215H counted along it
Procedure: as §1

T1 sequence (Q9NZQ7 19-238 limits assumed): as the sequence (G7PSE7 entry or part of it limits assumed) above, with T33A, S34A, N62S, Q68R, R82Q, L173F, A185T, I192T, L215H counted along it

B1: BiPDL4-44 (antibody, V domains shown)
VH: QVQLVESGGGVIQPGRSLRLSCAASGFTFSAYLMHWVRQAPGKGLEWVAAIGYDGMNKYYADSVKGRFTISRDNSKNTLYLQMNSLRAEDTAVYYCARAGIEYSYAYTDYWGQGTLVTVSS
VL: EIVLTQSPGTLSLSPGERATLSCRASHSVVSSYLAWYQQKPGQAPRLLIYGASSREDGIPDRFSGSGSGTDFTLTISRLEPEDFAVYYCVQFGWWPPRTFGGGTKVEIK
notes: Fourth generation, IgG
Human PD-L1-HIS [1]
  Kd: 7890 pM
Human PD-L2-HIS [2]
  Kd: 889 pM
Human PD-L1 on CHO cells
  EC50 (read off the curve); Fold induction of luciferase, Promega: CHO-PD-L1/PD-L2 dual cells with PD-1 Jurkat reporter cells (PD-L1 and PD-L2 not separable): ~1000 pM
Human PD-L2 on CHO cells
  EC50 (read off the curve); Fold induction of luciferase, Promega: CHO-PD-L1/PD-L2 dual cells with PD-1 Jurkat reporter cells (PD-L1 and PD-L2 not separable): ~1000 pM
Mouse PD-L2-Fc [3]
  Kd: 4140 pM
Cyno PD-L2-Fc [4]
  Kd: 417 pM
Cyno PD-L1-Fc [5]
  Kd: 555 pM
Mouse PD-L1-Fc [6]
  Kd: 793 pM

B2: BiPDL3-34 (antibody, V domains shown)
VH: QVQLQQWGAGLLKPSETLSLTCAVYGGSLSGYPWSWIRQPPGKGLEWIGETDVSGWTDYNPSLKSRVTISVDTSKNQFSLKLSSVTAADTAVYYCARDGRRMGTPSFDIWGQGTMVTVSS
VL: DIQMTQSPSSVSASVGDRVTITCRASQDISSFLAWYQQKPGKAPKLLIYAASSLQDGVPSRFSGSGSGTDFTLTISSLQPEDFATYYCQKSVYFPPTFGGGTKVEIK
notes: IgG; also called ADI-37468; 37468
Human PD-L1-HIS [7]
  Kd: 17800 pM
Human PD-L2-HIS [8]
  Kd: 844 pM
Mouse PD-L2-Fc [9]
  Kd: 484 pM
Cyno PD-L2-Fc [10]
  Kd: 677 pM
Cyno PD-L1-Fc [11]
  Kd: 431 pM
Mouse PD-L1-Fc [12]
  Kd: 31600 pM

B3: BiPDL3-44 (antibody, V domains shown)
VH: QVQLQQWGAGLLKPSETLSLTCAVYGGSLSGYPWSWIRQPPGKGLEWIGETDVSGWTDYNPSLKSRVTISVDTSKNQFSLKLSSVTAADTAVYYCARDGRRMGTPSFDIWGQGTMVTVSS
VL: DIQMTQSPSSVSASVGDRVTITCRASQGISTFLAWYQQKPGKAPKLLIYAASALHSGVPSRFSGSGSGTDFTLTISSLQPEDFATYYCQRAVYFPPTFGGGTKVEIK
notes: IgG; also called ADI-37475; 37475
Human PD-L1-HIS [7]
  Kd: 30200 pM
Human PD-L2-HIS [8]
  Kd: 1450 pM
Mouse PD-L2-Fc [9]
  Kd: 552 pM
Cyno PD-L2-Fc [10]
  Kd: 603 pM
Cyno PD-L1-Fc [11]
  Kd: 455 pM
Mouse PD-L1-Fc [12]
  Kd: 42000 pM

B4: BiPDL4-44 Fab (Fab, V domains shown)
VH: QVQLVESGGGVIQPGRSLRLSCAASGFTFSAYLMHWVRQAPGKGLEWVAAIGYDGMNKYYADSVKGRFTISRDNSKNTLYLQMNSLRAEDTAVYYCARAGIEYSYAYTDYWGQGTLVTVSS
VL: EIVLTQSPGTLSLSPGERATLSCRASHSVVSSYLAWYQQKPGQAPRLLIYGASSREDGIPDRFSGSGSGTDFTLTISRLEPEDFAVYYCVQFGWWPPRTFGGGTKVEIK
notes: Fab made by papain digestion of the IgG
Human b-PD-L2-His
  Kd: 150 pM
Human PD-L2-Fc
  Kd: 437 pM
Human PD-L1-Fc
  Kd: 6000 pM
